The text below walks through data of US20200317768A1 (published 2020).

What all share (assay): SPR (Biacore), KD of SG1 / KD of variant;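 note: relative to parent M103205H795-SG1 carrying the SG1 human heavy chain constant region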
(In general: SPR reads the build-up and loss of mass on a sensor chip optically.)

Test [1] has as its target T1, cynomolgus monkey FcγRIIa1 extracellular domain, C-terminal His-tag (cynomolgus monkey).
T1 construct: also called cyno FcγRIIa1; cynoFcgRIIa1; not shown: His-tag added to C-terminus
T1 chain: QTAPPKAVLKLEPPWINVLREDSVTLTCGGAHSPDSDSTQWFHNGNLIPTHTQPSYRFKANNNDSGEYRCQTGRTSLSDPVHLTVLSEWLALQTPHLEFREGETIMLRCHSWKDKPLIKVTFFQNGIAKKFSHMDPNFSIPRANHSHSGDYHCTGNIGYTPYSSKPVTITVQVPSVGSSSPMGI

Test [2] concerns the target T2, cynomolgus monkey FcγRIIa2 extracellular domain, C-terminal His-tag (cynomolgus monkey).
T2 construct: also called cyno FcγRIIa2; cynoFcgRIIa2; not shown: His-tag added to C-terminus
T2 chain: T1 chain with P95T, T121A, I127K, A128S, K130N, D135N, R142Q

Test [3] addresses T3, cynomolgus monkey FcγRIIa3 extracellular domain, C-terminal His-tag (cynomolgus monkey).
T3 construct: also called cyno FcγRIIa3; cynoFcgRIIa3; not shown: His-tag added to C-terminus
T3 chain: T1 chain with P95T, T121A, A128S, H133P, D135N

The target in test [4] is T4, cynomolgus monkey FcγRIIb extracellular domain, C-terminal His-tag (cynomolgus monkey).
T4 construct: also called cyno FcγRIIb; cynoFcγRIIb; not shown: His-tag added to C-terminus
T4 chain: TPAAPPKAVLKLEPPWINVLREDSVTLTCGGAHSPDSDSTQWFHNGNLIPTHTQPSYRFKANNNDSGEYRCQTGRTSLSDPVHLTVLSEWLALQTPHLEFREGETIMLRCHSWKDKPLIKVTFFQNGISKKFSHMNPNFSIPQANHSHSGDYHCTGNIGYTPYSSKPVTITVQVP

Test [5] has as its target T5, human FcγRIIaH extracellular domain, C-terminal His-tag (human, UniProt P12318 34-217).
T5 construct: also called human FcγRIIa (type H); FcgRIIaH; not shown: His-tag added to C-terminus
T5 sequence: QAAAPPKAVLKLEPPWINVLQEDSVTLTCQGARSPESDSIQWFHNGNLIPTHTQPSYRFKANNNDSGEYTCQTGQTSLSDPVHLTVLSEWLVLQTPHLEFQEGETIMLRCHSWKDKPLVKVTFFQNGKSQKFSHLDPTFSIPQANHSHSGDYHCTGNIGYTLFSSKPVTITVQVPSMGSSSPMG

Test [6] has as its target T6, human FcγRIIaR extracellular domain, C-terminal His-tag (human, UniProt P12318 34-217).
T6 construct: also called human FcγRIIa (type R); FcgRIIaR; not shown: His-tag added to C-terminus
T6 chain: T5 sequence with H134R

Test [7] has as its target T7, human FcγRIIb extracellular domain, C-terminal His-tag (human, UniProt P31994 43-217).
T7 construct: also called FcgRIIb (human); not shown: His-tag added to C-terminus
T7 sequence: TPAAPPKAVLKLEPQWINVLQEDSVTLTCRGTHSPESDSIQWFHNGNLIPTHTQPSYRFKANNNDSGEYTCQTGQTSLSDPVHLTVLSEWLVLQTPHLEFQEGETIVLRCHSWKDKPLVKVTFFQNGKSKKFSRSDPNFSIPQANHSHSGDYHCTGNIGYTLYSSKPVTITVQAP

The target of test [8] is T8, human FcγRIIIaV extracellular domain, C-terminal His-tag (human, UniProt P08637 17-208).
T8 construct: also called FcgRIIIaV; not shown: His-tag added to C-terminus

Substitutions are numbered along the chain they refer to.

T8 sequence (P08637 17-208 F176V): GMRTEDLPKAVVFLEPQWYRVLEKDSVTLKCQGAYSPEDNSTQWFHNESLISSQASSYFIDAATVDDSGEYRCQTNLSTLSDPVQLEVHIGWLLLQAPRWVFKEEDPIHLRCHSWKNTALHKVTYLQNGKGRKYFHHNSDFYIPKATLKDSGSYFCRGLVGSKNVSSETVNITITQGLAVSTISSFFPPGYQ

B1: M103205H795-MY271/M103202L889-SK1 (antibody, human IgG1, kappa)
heavy: QVTLKESGPVLVKPTETLTLTCTVSGIDLSHDDISWVRQAPGKGLEWVGIISYAGSTYYASWAKGRLTISKDTSKNQVVLTMTNMDPVDTATYYCARGVPAYSHGGDLWGQGTLVTVSSASTKGPSVFPLAPSSKSTSGGTAALGCLVKDYFPEPVTVSWNSGALTSGVHTFPAVLQSSGLYSLSSVVTVPSSSLGTQTYICNVNHKPSNTKVDKKVEPKSCDKTHTCPPCPAPELLVGPSVFLFPPKPKDTLMISRTPEVTCVVVDVSDEDPEVKFNWYVDGVEVHNAKTKPREEQYNSTYRVVSVLTVLHQDWLNGKEYKCKVSNKALPKPIEKTISKAKGQPREPQVYTLPPSREEMTKNQVSLTCLVKGFYPSDIAVEWESNGQPENNYKTTPKVLDSDGSFFLYSKLTVDKSRWQQGNVFSCSVMHEALHNHYTQKSLSLSP
light: DIVMTQSPATLSLSPGERATLSCTSSQSVYHANWLSWFQQKPGQPPKLLIYWASTLAYGVPSRFSGSGSGTDFTLTISSLQPEDAATYYCAGGYGGGRYAFGQGTKVEIKRTVAAPSVFIFPPSDEQLKSGTASVVCLLNNFYPREAKVQWKVDNALQSGNSQESVTEQDSKDSTYSLSSTLTLSKADYEKHKVYACEVTHQGLSSPVTKSFNRGEC
As for B1, the “KD fold (SG1 = 1)” value in test [1] was determined as 4.7 fold; in test [2], 7.3 fold; in test [3], 3.5 fold; in test [4] it was 9.5 fold; in test [5], 15.7 fold; in test [6], 4.8 fold. The “KD fold (SG1 = 1)” value was determined as 2.2 fold in test [7] and 0.35 fold in test [8].

B2: M103205H795-MY276/M103202L889-SK1 (antibody, human IgG1, kappa)
heavy: B1 heavy with V238I
light: B1 light
On to B2, for which the “KD fold (SG1 = 1)” value is 2.9 fold in test [1]; 4.6 fold in test [2]; 3.8 fold in test [3]; 5.3 fold in test [4]; 13 fold in test [5]; 4.4 fold in test [6]. Besides, the “KD fold (SG1 = 1)” value turned out to be 1.9 fold in test [7] and 0.14 fold in test [8].

B3: M103205H795-MY279/M103202L889-SK1 (antibody, human IgG1, kappa)
heavy: B1 heavy with V238H, Q297L, K398P
light: B1 light
Regarding B3, the “KD fold (SG1 = 1)” value in test [1] stood at 1.1 fold; in test [2], 1.5 fold; in test [3] it was 3.6 fold; in test [4], 2 fold; in test [5], 4.9 fold; in test [6] it was 1.5 fold. The “KD fold (SG1 = 1)” value in test [7] was 1 fold; in test [8], 0.12 fold.

B4: M103205H795-MY308/M103202L889-SK1 (antibody, human IgG1, kappa)
heavy: B1 heavy with V238T, D270E, K398P
light: B1 light
In the case of B4, the “KD fold (SG1 = 1)” value in test [1] was 1 fold; in test [2], 1.9 fold; in test [3], 1.3 fold; in test [4] it was 1.2 fold; in test [5], 1.5 fold; in test [6] it was 1.3 fold. Also, the “KD fold (SG1 = 1)” value worked out at 1.1 fold in test [7] and 0.03 fold in test [8].

B5: M103205H795-MY278/M103202L889-SK1 (antibody, human IgG1, kappa)
heavy: B1 heavy with V238M, Q297L, K398P
light: B1 light
For the molecule B5, the “KD fold (SG1 = 1)” value is 1.1 fold in test [1]; 1.4 fold in test [2]; 1.7 fold in test [3]; 1.6 fold in test [4]; 1.3 fold in test [5]; 0.7 fold in test [6]. For the same molecule, the “KD fold (SG1 = 1)” value in test [7] is 1 fold; in test [8] it was 0.24 fold.

B6: M103205H795-MY292/M103202L889-SK1 (antibody, human IgG1, kappa)
heavy: B1 heavy with V238G, G239Y, Q297L, K398M
light: B1 light
With B6, the “KD fold (SG1 = 1)” value in test [1] stood at 2.1 fold; in test [2], 2 fold; in test [3], 7.7 fold; in test [4], 4 fold; in test [5] it was 0.7 fold; in test [6], 14.5 fold. Moreover, the “KD fold (SG1 = 1)” value is 32.9 fold in test [7] and 0.03 fold in test [8].

B7: M103205H795-MY273/M103202L889-SK1 (antibody, human IgG1, kappa)
heavy: B1 heavy with V238L
light: B1 light
On to B7, for which the “KD fold (SG1 = 1)” value in test [1] was 0.8 fold; in test [2] it was 1.5 fold; in test [3], 1.5 fold; in test [4], 1.5 fold; in test [5], 1.4 fold; in test [6], 1.1 fold. Further, the “KD fold (SG1 = 1)” value in test [7] amounted to 0.9 fold; in test [8] it was 0.08 fold.

B8: M103205H795-MY281/M103202L889-SK1 (antibody, human IgG1, kappa)
heavy: B1 heavy with V238Q, Q297L, K398P
light: B1 light
On to B8, for which the “KD fold (SG1 = 1)” value amounted to 1.7 fold in test [1]; 2 fold in test [2]; 1.9 fold in test [3]; 2.9 fold in test [4]; 3.3 fold in test [5]; 2.8 fold in test [6]. Also, the “KD fold (SG1 = 1)” value in test [7] came out at 2.6 fold; in test [8], 0.39 fold.

B9: M103205H795-MY272/M103202L889-SK1 (antibody, human IgG1, kappa)
heavy: B1 heavy with V238Q
light: B1 light
For the molecule B9, the “KD fold (SG1 = 1)” value in test [1] is 1.9 fold; in test [2] it was 2.7 fold; in test [3], 2.7 fold; in test [4] it was 4.2 fold; in test [5] it was 7.5 fold; in test [6] it was 4.4 fold. The results for the “KD fold (SG1 = 1)” value in test [7] and in test [8] were 3.5 fold and 0.93 fold, respectively.

B10: M103205H795-MY293/M103202L889-SK1 (antibody, human IgG1, kappa)
heavy: B1 heavy with V238G, G239Y, D270E, Q297L
light: B1 light
For B10, the “KD fold (SG1 = 1)” value is 1.1 fold in test [1]; 1.5 fold in test [2]; 4.4 fold in test [3]; 2.1 fold in test [4]; 0.5 fold in test [5]; 15.1 fold in test [6]. The “KD fold (SG1 = 1)” value in test [7] was determined as 30.7 fold; in test [8] it was 0.02 fold.

B11: M103205H795-MY274/M103202L889-SK1 (antibody, human IgG1, kappa)
heavy: B1 heavy with V238T
light: B1 light
On to B11, for which the “KD fold (SG1 = 1)” value came out at 3.6 fold in test [1]; 6.4 fold in test [2]; 8.5 fold in test [3]; 7.8 fold in test [4]; 8.3 fold in test [5]; 6.5 fold in test [6]. For the same molecule, the “KD fold (SG1 = 1)” value is 4.8 fold in test [7] and 0.33 fold in test [8].
